What was measured:
SEC-MALS = molecular target: the molecule itself; assay: SEC-MALS
negative-staining TEM = molecular target: the molecule itself; assay: negative-staining TEM
SEC = molecular target: the molecule itself; assay: SEC

Protein	stoichiometry N (SEC-MALS)	binding result (negative-staining TEM)	binding result (SEC)
tag-cleaved SSNA1 1-90 (domain or fragment, human) GPMTQQGAALQNYNNELVKCIEELCQKREELCRQIQEEEDEKQRLQNEVRQLTEKLARVNENLARKIASRNEFDRTIAETEAAYLKILESSQ	2	–	–
tag-cleaved SSNA1 S89A (natural protein, human) GPMTQQGAALQNYNNELVKCIEELCQKREELCRQIQEEEDEKQRLQNEVRQLTEKLARVNENLARKIASRNEFDRTIAETEAAYLKILESAQTLLSVLKREAGNLTKATAPDQKSSGGRDS	–	binds	–
tag-cleaved SSNA1 (full-length human SSNA1, 1-119) (natural protein) GPMTQQGAALQNYNNELVKCIEELCQKREELCRQIQEEEDEKQRLQNEVRQLTEKLARVNENLARKIASRNEFDRTIAETEAAYLKILESSQTLLSVLKREAGNLTKATAPDQKSSGGRDS	–	–	binds
tag-cleaved SSNA1 S89D (natural protein, human) GPMTQQGAALQNYNNELVKCIEELCQKREELCRQIQEEEDEKQRLQNEVRQLTEKLARVNENLARKIASRNEFDRTIAETEAAYLKILESDQTLLSVLKREAGNLTKATAPDQKSSGGRDS	2	–	–
tag-cleaved SSNA1 1-104 (domain or fragment, human) GPMTQQGAALQNYNNELVKCIEELCQKREELCRQIQEEEDEKQRLQNEVRQLTEKLARVNENLARKIASRNEFDRTIAETEAAYLKILESSQTLLSVLKREAGNLT	–	–	binds
tag-cleaved SSNA1 1-97 (domain or fragment, human) GPMTQQGAALQNYNNELVKCIEELCQKREELCRQIQEEEDEKQRLQNEVRQLTEKLARVNENLARKIASRNEFDRTIAETEAAYLKILESSQTLLSVLK	–	binds	–

Source: doi:10.1101/2025.04.28.648957 (bioRxiv, 2025)
